Laboratory results: US20250000950A1, “PRESERVED FORMULATIONS” (ELI LILLY AND COMPANY, priority 2021, published 2025)

How the values were obtained:
Isoelectric point of BIF = format: physicochemical
[1] = Onset of melting temperature (Tm, Onset) by differential scanning calorimetry (DSC); format: physicochemical; settings: BIF 2 mg/mL
Experimental: Biophysical developability/high-throughput profiling studies are conducted on 2 mg/mL formulations of BIF in different buffer matrices and pH conditions. The onset of melting temperature Tm (Tm, Onset) was measured using differential scanning calorimetry (DSC). Tm, Onset is the temperature at which a folded protein starts to lose its native conformation, i.e., the higher the Tm, Onset, the less susceptible a protein to denaturation.

B1: insulin efsitora alfa (protein)
chain: FVNQHLCGSHLVEALELVCGERGFHYGGGGGGSGGGGGIVEQCCTSTCSLDQLENYCGGGGGQGGGGQGGGGQGGGGGECPPCPAPPVAGPSVFLFPPKPKDTLMISRTPEVTCVVVDVSHEDPEVQFNWYVDGVEVHNAKTKPREEQFNSTFRVVSVLTVVHQDWLNGKEYKCKVSNKGLPAPIEKTISKTKGQPREPQVYTLPPSREEMTKNQVSLTCLVKGFYPSDIAVEWESNGQPENNYKTTPPMLDSDGSFFLYSKLTVDKSRWQQGNVFSCSVMHEALHNHYTQKSLSLSPG
modifications: homodimer
notes: dimer of an insulin receptor agonist fused to a human IgG Fc region
In the case of B1, the “pl (isoelectric point) of BIF” value (Isoelectric point of BIF) is reported as “≈ 6.1”, the “Tm, Onset” value ([1]; Citrate 10 mM, NaCl 25 mM, pH 5.5) is reported as 60.29 °C and the “Tm, Onset” value ([1]; Citrate 10 mM, NaCl 25 mM, pH 6.0) is reported as 63.58 °C. The “Tm, Onset” value ([1]; Citrate 10 mM, NaCl 25 mM, pH 6.5) was 65.61 °C, the “Tm, Onset” value ([1]; Citrate 10 mM, NaCl 25 mM, pH 7.0) was 66.32 °C and the “Tm, Onset” value ([1]; Citrate 10 mM, NaCl 150 mM, pH 5.5) was 59.59 °C. The “Tm, Onset” value ([1]; Citrate 10 mM, NaCl 150 mM, pH 6.0) was 62.78 °C, the “Tm, Onset” value ([1]; Citrate 10 mM, NaCl 150 mM, pH 6.5) was 64.76 °C and the “Tm, Onset” value ([1]; Citrate 10 mM, NaCl 150 mM, pH 7.0) was 65.41 °C. The “Tm, Onset” value ([1]; Phosphate 10 mM, NaCl 25 mM, pH 6.0) was 62.86 °C, the “Tm, Onset” value ([1]; Phosphate 10 mM, NaCl 25 mM, pH 6.5) was 64.06 °C and the “Tm, Onset” value ([1]; Phosphate 10 mM, NaCl 25 mM, pH 7.0) was 66.39 °C. The “Tm, Onset” value ([1]; Phosphate 10 mM, NaCl 25 mM, pH 7.5) was 66.90 °C, the “Tm, Onset” value ([1]; Phosphate 10 mM, NaCl 150 mM, pH 6.0) was 63.36 °C and the “Tm, Onset” value ([1]; Phosphate 10 mM, NaCl 150 mM, pH 6.5) was 64.42 °C. For the same molecule, the “Tm, Onset” value ([1]; Phosphate 10 mM, NaCl 150 mM, pH 7.0) was 65.79 °C and the “Tm, Onset” value ([1]; Phosphate 10 mM, NaCl 150 mM, pH 7.5) was 66.11 °C.
